{"source": "paper PMC13186709", "binders": {"B1": {"name": "KSE (structured_RNA)", "RNA": "AAACCCAAUUGAACAUAUAGUGGAAUUAUUAUUAUCAAUGGGGAAUAUUUAACCC"}, "B2": {"name": "TLS-2xGCED1 (structured_RNA)", "RNA": "UUACACCACUUGAGGGUAUUUUUAAAUUAAUUCUUAAAAACUACACCUUAAGAUCACUCU"}, "B3": {"name": "TLS-AUED1/ED2 (structured_RNA)", "RNA": "B2 RNA with G14A, G15U, U23A, A36U, C46A, C47U"}, "B4": {"name": "TLS-2xGCED1+GCED2 (structured_RNA)", "RNA": "B2 RNA with U23G, A36C"}, "B5": {"name": "TLS-GCED2 (structured_RNA)", "RNA": "B2 RNA with G14U, G15U, U23G, A36C, C46A, C47A"}, "B6": {"name": "TLS-GCED1/ED2 (structured_RNA)", "RNA": "B2 RNA with G15U, U23G, A36C, C46A"}, "B7": {"name": "TLS-CGED1/ED2 (structured_RNA)", "RNA": "B2 RNA with G14C, G15U, U23C, A36G, C46A, C47G"}, "B8": {"name": "2NUE RNA (structured_RNA)", "RNA": "AAGGGACAAGCGCAAGGUCAUUCGCAAGAGUGGCCUUGCGCUUGUCCC"}, "B9": {"name": "GLS (MST) (structured_RNA)", "RNA": "AAAGUAAUUUUCGUGCUCUCAACAAUUGUCGCCGUCACAGAUUGUUGUUCGAGCCGAAUCUUACU"}, "B10": {"name": "TLS-KSE (structured_RNA)", "RNA": "GUCAAAGCUUACCUUGAUUGUAUUUUUAAAUUAAUUCUUAAAAACUACAAAUUAAGUUGCAAACAUGCGAAUCCUAAACUCGGUUCACAACUUCCCCAAUUGAACAUAUAGUGGAAUUAUUAUUAUCAAUGGGGAAUAUGCUAGC"}, "B11": {"name": "bcdSLV (MST) (structured_RNA)", "RNA": "AAAAAUGUUUCUCUUGGGCGUAAUCUCAUACAAUGAUUACCCUUAAAGAUCGAACAUUU"}, "B12": {"name": "hSL2 (structured_RNA)", "RNA": "AACUUCGUUGGCUUAGUUUCCUGGCUUAUAUCCUGGAAACCCGUCGACGAGG"}, "B13": {"name": "TLS∆b (structured_RNA)", "RNA": "UUACACCACUUGAUUGUAUUUUUAAAUUAAUUCUUAAAAAUACAAUUAAGAUCACUCU"}, "B14": {"name": "hSL1∆b (structured_RNA)", "RNA": "UGCGCGUAGACAUUUCACAUCAUUCGCCGGGAUUGGCAAAUGUUGUGAAGUGUUGCAAACAU"}}, "key": {"[1]": {"molecular_target": "T1, Egalitarian (Egl);Bicaudal D (BicD) (Drosophila melanogaster;Drosophila …, UniProt Q9W1K4;P16568 1-1004;1-782, |)", "T1 sequence (chain, as listed by the source |, chain 1 of 2)": "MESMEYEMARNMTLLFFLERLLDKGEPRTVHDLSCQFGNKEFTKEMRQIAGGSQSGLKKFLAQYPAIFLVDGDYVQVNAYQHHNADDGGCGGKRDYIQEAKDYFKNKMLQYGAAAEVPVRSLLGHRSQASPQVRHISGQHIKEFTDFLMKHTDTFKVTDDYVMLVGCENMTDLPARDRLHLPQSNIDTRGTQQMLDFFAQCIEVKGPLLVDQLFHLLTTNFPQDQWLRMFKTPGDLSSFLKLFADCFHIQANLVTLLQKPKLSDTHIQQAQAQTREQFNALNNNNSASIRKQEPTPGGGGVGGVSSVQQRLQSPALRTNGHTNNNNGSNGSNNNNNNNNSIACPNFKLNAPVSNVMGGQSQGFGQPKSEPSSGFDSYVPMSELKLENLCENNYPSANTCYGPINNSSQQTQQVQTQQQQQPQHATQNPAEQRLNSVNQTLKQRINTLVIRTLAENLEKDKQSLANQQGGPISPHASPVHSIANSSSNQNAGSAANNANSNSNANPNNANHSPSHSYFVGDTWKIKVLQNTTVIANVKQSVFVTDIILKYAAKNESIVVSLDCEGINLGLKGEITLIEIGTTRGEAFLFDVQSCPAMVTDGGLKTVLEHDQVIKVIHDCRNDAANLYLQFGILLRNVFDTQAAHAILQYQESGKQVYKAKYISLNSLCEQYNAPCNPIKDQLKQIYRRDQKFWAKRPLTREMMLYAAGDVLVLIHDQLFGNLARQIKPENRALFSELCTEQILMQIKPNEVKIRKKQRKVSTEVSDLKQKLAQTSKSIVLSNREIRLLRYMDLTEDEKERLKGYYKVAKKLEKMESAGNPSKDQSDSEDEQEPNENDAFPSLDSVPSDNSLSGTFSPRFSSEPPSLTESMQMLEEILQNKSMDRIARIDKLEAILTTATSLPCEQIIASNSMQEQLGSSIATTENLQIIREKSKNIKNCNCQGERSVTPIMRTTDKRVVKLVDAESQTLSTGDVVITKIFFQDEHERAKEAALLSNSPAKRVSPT", "T1 sequence (P16568 whole entry, chain 2 of 2)": "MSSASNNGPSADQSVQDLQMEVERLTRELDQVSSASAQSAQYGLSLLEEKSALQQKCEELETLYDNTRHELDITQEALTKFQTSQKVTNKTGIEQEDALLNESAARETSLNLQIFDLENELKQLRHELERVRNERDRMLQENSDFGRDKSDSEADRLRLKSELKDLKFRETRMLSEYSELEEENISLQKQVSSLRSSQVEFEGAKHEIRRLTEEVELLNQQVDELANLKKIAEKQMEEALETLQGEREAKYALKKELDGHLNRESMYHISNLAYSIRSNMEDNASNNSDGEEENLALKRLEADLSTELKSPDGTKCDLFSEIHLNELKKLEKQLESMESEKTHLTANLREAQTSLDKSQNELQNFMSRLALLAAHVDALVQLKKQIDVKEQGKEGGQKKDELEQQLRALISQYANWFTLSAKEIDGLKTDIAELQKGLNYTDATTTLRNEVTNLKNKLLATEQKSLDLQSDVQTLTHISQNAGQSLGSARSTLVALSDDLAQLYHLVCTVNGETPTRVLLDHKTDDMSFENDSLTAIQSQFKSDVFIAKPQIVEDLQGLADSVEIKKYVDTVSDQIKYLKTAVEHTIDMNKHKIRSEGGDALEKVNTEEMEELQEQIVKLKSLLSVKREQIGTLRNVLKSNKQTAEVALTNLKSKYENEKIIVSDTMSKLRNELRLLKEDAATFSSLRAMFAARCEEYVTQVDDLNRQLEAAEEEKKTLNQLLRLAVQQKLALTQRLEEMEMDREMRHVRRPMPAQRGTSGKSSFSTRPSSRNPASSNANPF", "assay": "MST; MST: 1 nM Cy5-RNA in GF150 (25 mM HEPES pH 7.3, 150 mM KCl, 1 mM MgCl2, 0.1 mM Mg-ATP, 5 mM DTT, 10% glycerol) + 0.05% Tween-20, 15 min, room temperature; Egl-BicD conc. as 2:2 complex", "conditions": "protein: recombinant;recombinant, tags: C-terminal TEV-ZZ (cleaved);, chain copies: 2;2, label: 5'-Cy5"}, "[2]": {"molecular_target": "T1, Egalitarian (Egl);Bicaudal D (BicD)", "assay": "MST; two experiments, different preps; MST: 1 nM Cy5-RNA in GF150 (25 mM HEPES pH 7.3, 150 mM KCl, 1 mM MgCl2, 0.1 mM Mg-ATP, 5 mM DTT, 10% glycerol) + 0.05% Tween-20, 15 min, room temperature; Egl-BicD conc. as 2:2 complex", "conditions": "protein: recombinant;recombinant; tags: C-terminal TEV-ZZ (cleaved);; chain copies: 2;2; label: 5'-Cy5; straight hairpin"}, "[3]": {"molecular_target": "T1, Egalitarian (Egl);Bicaudal D (BicD)", "assay": "single-molecule motility; with human dynein and pig dynactin; single RNA per motile complex; MST: 1 nM Cy5-RNA in GF150 (25 mM HEPES pH 7.3, 150 mM KCl, 1 mM MgCl2, 0.1 mM Mg-ATP, 5 mM DTT, 10% glycerol) + 0.05% Tween-20, 15 min, room temperature; Egl-BicD conc. as 2:2 complex", "conditions": "protein: recombinant;recombinant; tags: C-terminal TEV-ZZ (cleaved);; chain copies: 2;2; label: Cy3- or Cy5-UTP; two hairpins"}, "[4]": {"molecular_target": "T1, Egalitarian (Egl);Bicaudal D (BicD)", "assay": "MST; prep 4; MST: 1 nM Cy5-RNA in GF150 (25 mM HEPES pH 7.3, 150 mM KCl, 1 mM MgCl2, 0.1 mM Mg-ATP, 5 mM DTT, 10% glycerol) + 0.05% Tween-20, 15 min, room temperature; Egl-BicD conc. as 2:2 complex", "conditions": "protein: recombinant;recombinant; tags: C-terminal TEV-ZZ (cleaved);; chain copies: 2;2; label: 5'-Cy5; hairpin"}}, "note": "Changes are numbered by the printed parent chain.", "data": [{"binder": "B1", "values": [{"measurement": "Kd", "setting": "[1]; hairpin", "value": "507 ± 93", "unit": "nM"}]}, {"binder": "B2", "values": [{"measurement": "Kd", "setting": "[1]; hairpin with 3'-strand bulges", "value": "376 ± 154", "unit": "nM"}]}, {"binder": "B3", "values": [{"measurement": "Kd", "setting": "[1]; hairpin with 3'-strand bulges", "value": "746 ± 91", "unit": "nM"}]}, {"binder": "B4", "values": [{"measurement": "Kd", "setting": "[1]; hairpin with 3'-strand bulges", "value": "1510 ± 210", "unit": "nM"}]}, {"binder": "B5", "values": [{"measurement": "Kd", "setting": "[1]; hairpin with 3'-strand bulges", "value": "425 ± 140", "unit": "nM"}]}, {"binder": "B6", "values": [{"measurement": "Kd", "setting": "[1]; hairpin with 3'-strand bulges", "value": "4110 ± 1540", "unit": "nM"}]}, {"binder": "B7", "values": [{"measurement": "Kd", "setting": "[1]; hairpin with 3'-strand bulges", "value": "345 ± 34", "unit": "nM"}]}, {"binder": "B8", "values": [{"measurement": "binding result", "setting": "[2]", "value": "no binding"}]}, {"binder": "B9", "values": [{"measurement": "Kd", "setting": "[1]; hairpin with bulges", "value": "39 ± 14", "unit": "nM"}]}, {"binder": "B10", "values": [{"measurement": "binding result", "setting": "[3]", "value": "binds"}]}, {"binder": "B11", "values": [{"measurement": "Kd", "setting": "[1]; hairpin with bulges", "value": "231 ± 64", "unit": "nM"}]}, {"binder": "B12", "values": [{"measurement": "Kd", "setting": "[1]; hairpin with bulges", "value": "603 ± 79", "unit": "nM"}]}, {"binder": "B13", "values": [{"measurement": "Kd", "setting": "[4]", "value": "2800 ± 510", "unit": "nM"}]}, {"binder": "B14", "values": [{"measurement": "Kd", "setting": "[1]; hairpin", "value": "204 ± 36", "unit": "nM"}]}]}
